Experimental findings from publication PMC4133371 are described below.

The target in this assay is endogenous E-cadherin (dog (endogenous in MDCK)). The assay is described as follows: co-IP; endogenous E-cadherin collected by antibodies to its extracellular part from lysates of MDCK cells expressing DsRed, DECT, DECTSA, DECTN or DECTC; immunoblot with anti-β-catenin or anti-plakoglobin; bands quantified with NIH Image as percent of DsRed cells.
Chain of endogenous E-cadherin (dog (endogenous in MDCK)) (F1PAA9 27-885): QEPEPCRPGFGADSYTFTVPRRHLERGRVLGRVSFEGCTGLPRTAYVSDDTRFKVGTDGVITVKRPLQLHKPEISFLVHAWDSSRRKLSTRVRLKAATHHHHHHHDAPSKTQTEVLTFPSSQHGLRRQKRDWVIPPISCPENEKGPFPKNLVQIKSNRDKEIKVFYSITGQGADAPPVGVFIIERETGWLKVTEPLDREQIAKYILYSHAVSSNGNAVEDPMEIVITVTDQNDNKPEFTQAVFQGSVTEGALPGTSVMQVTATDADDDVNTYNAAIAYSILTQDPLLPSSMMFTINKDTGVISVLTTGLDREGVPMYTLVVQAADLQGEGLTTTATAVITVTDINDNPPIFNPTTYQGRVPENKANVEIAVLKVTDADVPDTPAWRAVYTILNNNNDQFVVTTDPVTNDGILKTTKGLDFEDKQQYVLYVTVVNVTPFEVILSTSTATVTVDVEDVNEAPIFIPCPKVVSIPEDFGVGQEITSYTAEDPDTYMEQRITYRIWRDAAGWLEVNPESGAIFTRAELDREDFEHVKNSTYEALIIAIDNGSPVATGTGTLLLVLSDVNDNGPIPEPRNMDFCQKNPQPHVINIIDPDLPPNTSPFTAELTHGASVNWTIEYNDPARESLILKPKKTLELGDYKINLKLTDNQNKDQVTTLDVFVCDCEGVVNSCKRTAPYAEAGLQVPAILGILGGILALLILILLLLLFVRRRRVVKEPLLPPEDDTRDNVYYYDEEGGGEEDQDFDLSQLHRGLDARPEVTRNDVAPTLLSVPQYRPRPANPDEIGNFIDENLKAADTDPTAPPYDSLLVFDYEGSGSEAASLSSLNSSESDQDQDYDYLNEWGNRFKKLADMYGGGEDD

plakoglobin (natural protein) yielded a percent co-precipitated with endogenous E-cadherin relative to DsRed cells (cells expressing DECT) of 33%, a percent co-precipitated with endogenous E-cadherin relative to DsRed cells (cells expressing DECTC) of 187%, a percent co-precipitated with endogenous E-cadherin relative to DsRed cells (cells expressing DECTN) of 100% and a percent co-precipitated with endogenous E-cadherin relative to DsRed cells (cells expressing DsRed) of 100%.

B1: β-catenin (natural protein)
chain: MATQADLMELDMAMEPDRKAAVSHWQQQSYLDSGIHSGATTTAPSLSGKGNPEEEDVDTTQVLYEWEQGFSQSFTQEQVADIDGQYAMTRAQRVRAAMFPETLDEGMQIPSTQFDAAHPTNVQRLAEPSQMLKHAVVNLINYQDDAELATRAIPELTKLLNDEDQVVVNKAAVMVHQLSKKEASRHAIMRSPQMVSAIVRTMQNTNDVETARCTAGTLHNLSHHREGLLAIFKSGGIPALVKMLGSPVDSVLFYAITTLHNLLLHQEGAKMAVRLAGGLQKMVALLNKTNVKFLAITTDCLQILAYGNQESKLIILASGGPQALVNIMRTYTYEKLLWTTSRVLKVLSVCSSNKPAIVEAGGMQALGLHLTDPSQRLVQNCLWTLRNLSDAATKQEGMEGLLGTLVQLLGSDDINVVTCAAGILSNLTCNNYKNKMMVCQVGGIEALVRTVLRAGDREDITEPAICALRHLTSRHQEAEMAQNAVRLHYGLPVVVKLLHPPSHWPLIKATVGLIRNLALCPANHAPLREQGAIPRLVQLLVRAHQDTQRRTSMGGTQQQFVEGVRMEEIVEGCTGALHILARDVHNRIVIRGLNTIPLFVQLLYSPIENIQRVAAGVLCELAQDKEAAEAIEAEGATAPLTELLHSRNEGVATYAAAVLFRMSEDKPQDYKKRLSVELTSSLFRTEPMAWNETADLGLDIGAQGEPLGYRQDDPSYRSFHSGGYGQDALGMDPMMEHEMGGHHPGADYPVDGLPDLGHAQDLMDGLPPGDSNQLAWFDTDL
Molecule B1 registered a percent co-precipitated with endogenous E-cadherin relative to DsRed cells (cells expressing DECT) of 4%, a percent co-precipitated with endogenous E-cadherin relative to DsRed cells (cells expressing DECTC) of 24%, a percent co-precipitated with endogenous E-cadherin relative to DsRed cells (cells expressing DECTN) of 102% and a percent co-precipitated with endogenous E-cadherin relative to DsRed cells (cells expressing DsRed) of 100%.
